The data set concerns the target TALEN T3 pair (T3L/T3R) (artificial) (UniProt Q56830+Q56830). In words: cell_activity. To be noted: CD34+ cells.

CNOT10 off-target locus registered an activity (mock 0.03%, p<0.0001, off-target) of 0.25 % indels.

In turn, FAM5C off-target locus yielded an activity (mock 0.02%, p=0.0015, not significant in K562 or CD4+) of 0.05 % indels.

For the origin of these results see US20200392459.
